Results on 16 molecules are retold here after patent US20250101107A1 (REPERTOIRE IMMUNE MEDICINES, published 2025).

Residue numbers refer to the chain shown, from its start. Numbers in names are those of the source.

First the molecules themselves.
B1: 02-Parent-VH-M39L (antibody, V domains shown)
VH: EVQLQQSGPELVKPGASLKISCKASGYTFTDFTLHWVKQSHGKSLEWIGLVNPNNGGNIYNQNFKGKATLTVDTSSSTAYMELRSLTSEDSSVYYCGRVPLYTSHGMDYWGQGTSVTVSS
VL: DIVLTQSPAFLAVSLGQRATISCRASESVDSYDINSMHWYQQKPGQPPKLLIYRASHLQSGIPARFSGSGSRTDFTLTINFVEADDVATYYCQQSNEDPLTFGAGTKLELK
notes: also called murine 02A01 VH-M39L
B2: humanized 02A01-VH2-VK2 (antibody, V domains shown)
VH: EVQLVQSGAEVKKPGATLKISCKASGYTFTDFTMHWVQQAPGKGLEWIGLVNPNNGGNIYNQNFKGRATLTVDTSTSTAYMELSSLRSEDTSVYYCGRVPLYTSHGMDYWGQGTLVTVSS
VL: EIVLTQSPATLSVSPGERATISCRASESVDSYDINSMHWYQQKPGQAPRLLIYRASHLQSGIPARFSGSGSRTDFTLTISSVEPEDFATYYCQQSNEDPLTFGQGTKLEIK
B3: humanized 02A01-VH3-VK2 (antibody, V domains shown)
VH: B2 VH with N61A, Q62E, N63K, K65Q
VL: B2 VL
B4: humanized 02A01-VH3-VK1 (antibody, V domains shown)
VH: B2 VH with N61A, Q62E, N63K, K65Q
VL: B2 VL with A47P
B5: humanized 02A01-VH1-VK3 (antibody, V domains shown)
VH: B2 VH with A9P, K12V, Q38K, G44S
VL: B2 VL with V13L, V82L
B6: humanized 02A01-VH2-VK1 (antibody, V domains shown)
VH: B2 VH
VL: B2 VL with A47P
B7: humanized 02A01-VH1-VK1 (antibody, V domains shown)
VH: B2 VH with A9P, K12V, Q38K, G44S
VL: B2 VL with A47P
B8: humanized 02A01-VH1-VK2 (antibody, V domains shown)
VH: B2 VH with A9P, K12V, Q38K, G44S
VL: B2 VL
B9: 02A01-IgG-IL12 (LC) (other, not shown: a dimerising Fc or GST)
heavy: B1 VH with L34M
light: B1 VL
B10: 03A01-IgG-IL12 (LC) (other, not shown: a dimerising Fc or GST)
heavy: DVQFQESGPGLVKPSQSLSLTCTVTGYSITSDFAWNWIRQFPGNELEWMGYISYSGDTNYNPSLRSRISITRDTSKNQFFLQLDSVTTEDTATYYCTIRGYYTDSAFVFWGQGTLVTVSA
light: DIQMTQSSSYLSVSLGGRVTITCKASDHINNWLAWYQQKPGNAPRLLISGATSLETGVPSRFTGSGSGLDYTLSITSLQTEDVATYYCQQYWNSPFTFGSGTKLEIK
B11: humanized 03A01-VH1-VK1 (antibody, V domains shown)
VH: EVQFQESGPGLVKPSQTLSLTCTVTGYSITSDFAWNWIRQPPGKELEWMGYISYSGDTNYNPSLRSRITISRDTSKNQFSLKLSSVTAADTATYYCTIRGYYTDSAFVFWGQGTLVTVSS
VL: DIQMTQSSSTLSVSLGDRVTITCKASDHINNWLAWYQQKPGKAPRLLISGATSLETGVPSRFSGSGSGLEYTLTISSLQPDDFATYYCQQYWNSPFTFGQGTKLEIK
B12: humanized 03A01-VH4-VK3 (antibody, V domains shown)
VH: B11 VH with T25S, E45G, M49I, N59Y, R65K, I68V, T93V
VL: B11 VL with S8P, V13A, L15V, R45K
B13: humanized 03A01-VH4-VK2 (antibody, V domains shown)
VH: B11 VH with T25S, E45G, M49I, N59Y, R65K, I68V, T93V
VL: B11 VL with S8P, L15V, R45K
B14: humanized 03A01-VH4-VK1 (antibody, V domains shown)
VH: B11 VH with T25S, E45G, M49I, N59Y, R65K, I68V, T93V
VL: B11 VL
B15: humanized 03A01-VH2-VK1 (antibody, V domains shown)
VH: B11 VH with T25S, E45G, T93V
VL: B11 VL
B16: 03-Parent-VH-D64E (antibody, V domains shown)
VH: B10 heavy with D57E
VL: B10 light
notes: also called 03A01 VH-D64E

The first experiment deals with T1, human CD8 on human T cells (human, UniProt P01732 22-235; P10966 22-210).
T1 construct: whole, on cells; Target as carried by human CD3+/CD8+ T cells, PBMCs or MART-1-specific T cells; the mice were immunized with human CD8a; also called hCD8; CD8 expressed on the cell surface
T1 sequence (P01732 22-235, chain 1 of 2): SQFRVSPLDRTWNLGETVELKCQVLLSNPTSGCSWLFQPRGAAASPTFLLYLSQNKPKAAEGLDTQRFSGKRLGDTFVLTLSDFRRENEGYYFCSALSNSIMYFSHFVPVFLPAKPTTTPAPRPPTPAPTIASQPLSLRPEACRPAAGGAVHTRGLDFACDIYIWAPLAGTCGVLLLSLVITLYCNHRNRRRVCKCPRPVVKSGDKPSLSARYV
T1 sequence (P10966 22-210, chain 2 of 2): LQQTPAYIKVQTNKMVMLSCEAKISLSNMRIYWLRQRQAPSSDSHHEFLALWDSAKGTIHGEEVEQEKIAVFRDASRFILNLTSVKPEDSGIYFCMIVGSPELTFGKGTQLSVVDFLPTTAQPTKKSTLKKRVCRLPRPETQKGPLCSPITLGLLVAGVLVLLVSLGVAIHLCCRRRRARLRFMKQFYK
In words: flow cytometry, 0.2 nM antibody on human CD8+ T cells, anti-human IgG detection (MFI AF647). The method, then:
The 24 humanized 02A01-derived anti-CD8 antibodies (excluding 02A01-VK3(D30E/N35Q)) were screened for their ability to bind human CD8 by evaluating binding to CD8+ T cells. The non-humanized parent (“02-Parent”) and the non-humanized parent comprising a heavy chain M39L liability mutation (“02-Parent-VH-M39L”) were used as controls. […] Cells were washed with 1×phosphate buffered saline (PBS) containing 1 mg/mL bovine serum albumin (PBS/BSA) and then stained with a 1:100 dilution of DyLight650-conjugated anti-human IgG H+L polyclonal antibody (ThermoFisher cat. no. Sa5-10129) in PBS/BSA. Following a 20-30 min incubation at 4° C., the cells were washed once with PBS/BSA, and then resuspended in PBS/BSA for analysis on a FACSCelesta using Diva software (BD Biosciences). The resulting data were analyzed using FlowJo. Data were quantified and reported as Max fluorescence intensity (MFI) of human IgG-Fc. […] Complete replacement of the HCDR1 (antibodies comprising VH5) eliminated binding to the CD8+ T cells.
On the technique in general: A flow cytometer gives signals particle by particle.
On to B1, for which the binding result is on record as “binds”.
On the same count and under the same terms, the result for B2 reads “binds”; that for B3, “binds”; that for B4, “binds”.
Still for that read-out and setting: as for B5, the entry is “binds”.
Turning to B6, the binding result is given as “binds”.
The same measure, in the same setting: the result for B7 reads “binds”; that for B8, “binds”.

The target in a further experiment is T1, human CD8 on human T cells. The experiment in a line: cell-based or functional assay.
Regarding B9, the “EC50 for stimulation of pSTAT4 signaling, CD8+ T cells in pre-activated human PBMCs” value was 2.72 pM.
Regarding B10, the “EC50 for stimulation of pSTAT4 signaling, CD8+ T cells in pre-activated human PBMCs” value was 14.7 pM.

A further experiment deals with T1, human CD8 on human T cells. The experiment in a line: flow cytometry, 5 nM antibody on human CD8+ T cells, anti-human IgG detection (MFI AF647). The method, then: The 16 above-referenced humanized 03A01-derived anti-CD8 antibodies were screened for their ability to bind human CD8 by evaluating binding to CD8⁺ T cells. The non-humanized parent (“03-Parent”) and the non-humanized parent comprising a heavy chain D64E liability mutation (“03-Parent-VH-D64E”) were used as controls. […] Cells were washed with 1 X phosphate buffered saline (PBS) containing 1 mg/mL bovine serum albumin (PBS/BSA) and then stained with a 1:100 dilution of DyLight650-conjugated anti-human IgG H+L polyclonal antibody (ThermoFisher cat. no. Sa5-10129) in PBS/BSA. Following a 20-30 min incubation at 4° C., the cells were washed once with PBS/BSA, and then resuspended in PBS/BSA for analysis on a FACSCelesta using Diva software (BD Biosciences). The resulting data were analyzed using FlowJo. Data were quantified and reported as Max fluorescence intensity (MFI) of human IgG-Fc. […] Complete replacement of the LCDR1 (antibodies comprising VK4) eliminated binding to the CD8+ T cells.
On to B11, for which the binding result was “binds”.
Regarding B12, the binding result was “binds”.
Take B13: the binding result is given as “binds”.
Regarding B14, the binding result was “binds”.
Take B15: the binding result is listed as “binds”.
On the same count and under the same terms, the result for B16 reads “binds”.
